Target: STARD1^S195E mutant (human StAR domain, residues 66-285) (human) (UniProt P49675)
Test: SEC

STARD1^S195E mutant (human StAR domain, residues 66-285) (from UniProt P49675 66-285) (domain or fragment)
fraction of dimers: < 3%
